Results taken from article PMC3732525 (DNA repair, 2013).

Biological target: the molecule itself
Assay: SEC

B1: S. cerevisiae Dmc1 (ScDmc1), N-terminally (His)6-tagged (natural protein, UniProt P25453 1-334, looked up)
chain: MSVTGTEIDSDTAKNILSVDELQNYGINASDLQKLKSGGIYTVNTVLSTTRRHLCKIKGLSEVKVEKIKEAAGKIIQVGFIPATVQLDIRQRVYSLSTGSKQLDSILGGGIMTMSITEVFGEFRCGKTQMSHTLCVTTQLPREMGGGEGKVAYIDTEGTFRPERIKQIAEGYELDPESCLANVSYARALNSEHQMELVEQLGEELSSGDYRLIVVDSIMANFRVDYCGRGELSERQQKLNQHLFKLNRLAEEFNVAVFLTNQVQSDPGASALFASADGRKPIGGHVLAHASATRILLRKGRGDERVAKLQDSPDMPEKECVYVIGEKGITDSSD
binding result: binds
